Legend:
[1] = target: T1, gD epitope-tagged LgR5 22-123 (amino acids 22-123 of SEQ ID NO: 67) with a C-terminal GPI anchor on … (human, UniProt O75473 22-123, C-terminal GPI anchor); assay: FACS on transiently transfected 293 cells
T1 sequence: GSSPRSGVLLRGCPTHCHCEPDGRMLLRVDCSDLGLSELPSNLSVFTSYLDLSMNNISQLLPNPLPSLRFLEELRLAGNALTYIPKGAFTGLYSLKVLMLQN

[2] = target: T2, gD epitope-tagged LgR5 22-323 (amino acids 22-323 of SEQ ID NO: 67) with a C-terminal GPI anchor on … (human, UniProt O75473 22-323, C-terminal GPI anchor); assay: FACS on transiently transfected 293 cells
T2 sequence: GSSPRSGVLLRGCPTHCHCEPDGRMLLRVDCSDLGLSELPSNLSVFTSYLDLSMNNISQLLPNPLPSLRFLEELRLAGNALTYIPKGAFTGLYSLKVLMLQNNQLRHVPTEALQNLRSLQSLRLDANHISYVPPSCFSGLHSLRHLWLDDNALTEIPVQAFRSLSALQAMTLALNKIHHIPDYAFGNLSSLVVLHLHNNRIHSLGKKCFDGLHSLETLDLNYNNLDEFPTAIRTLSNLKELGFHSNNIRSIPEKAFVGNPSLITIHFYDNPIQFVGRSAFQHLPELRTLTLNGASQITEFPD

[3] = target: T3, gD epitope-tagged LgR5 424-907 (amino acids 424-907 of SEQ ID NO: 67) on transiently transfected 293 cells (human, UniProt O75473 424-907); assay: FACS on transiently transfected 293 cells
T3 sequence: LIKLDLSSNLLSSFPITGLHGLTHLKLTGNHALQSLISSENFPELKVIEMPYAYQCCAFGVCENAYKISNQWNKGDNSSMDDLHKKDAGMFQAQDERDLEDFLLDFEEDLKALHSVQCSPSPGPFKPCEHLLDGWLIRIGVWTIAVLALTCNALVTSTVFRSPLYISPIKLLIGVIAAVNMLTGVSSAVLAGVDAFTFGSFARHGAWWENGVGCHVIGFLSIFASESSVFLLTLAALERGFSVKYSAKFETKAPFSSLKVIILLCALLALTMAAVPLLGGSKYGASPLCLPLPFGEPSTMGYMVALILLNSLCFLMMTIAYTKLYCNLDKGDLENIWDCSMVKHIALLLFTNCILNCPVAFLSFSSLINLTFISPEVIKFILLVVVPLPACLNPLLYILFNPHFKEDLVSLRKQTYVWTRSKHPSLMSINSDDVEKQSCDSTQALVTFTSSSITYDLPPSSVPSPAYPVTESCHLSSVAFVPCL

[4] = target: T4, human LgR5 ECD (amino acids 22-557 fused to His-Fc expressed in a baculovirus system, or amino acids 22-558 … (human, UniProt O75473 22-557)); assay: SPR (BIAcore-3000), antibody captured by anti-human Fc, LgR5 ECD-Fc injected
T4 construct: not shown: C-terminal His-tagged Fc
T4 sequence: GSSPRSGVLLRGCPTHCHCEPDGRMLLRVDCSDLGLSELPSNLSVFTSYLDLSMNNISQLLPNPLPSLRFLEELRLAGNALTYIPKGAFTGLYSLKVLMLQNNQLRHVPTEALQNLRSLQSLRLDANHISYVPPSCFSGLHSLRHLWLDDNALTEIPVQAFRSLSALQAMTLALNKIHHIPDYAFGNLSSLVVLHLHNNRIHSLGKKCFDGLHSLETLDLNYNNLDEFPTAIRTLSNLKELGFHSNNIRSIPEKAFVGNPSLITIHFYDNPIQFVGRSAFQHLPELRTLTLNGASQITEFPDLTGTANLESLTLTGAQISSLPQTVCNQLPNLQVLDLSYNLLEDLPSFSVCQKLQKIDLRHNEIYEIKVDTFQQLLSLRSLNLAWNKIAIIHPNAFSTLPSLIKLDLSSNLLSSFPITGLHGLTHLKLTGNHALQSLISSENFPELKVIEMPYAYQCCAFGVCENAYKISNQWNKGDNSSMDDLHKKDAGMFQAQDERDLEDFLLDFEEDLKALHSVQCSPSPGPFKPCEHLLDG

[5] = target: T5, gD epitope-tagged mouse LgR5 expressed on stably transfected 293 cells (mouse, UniProt Q9Z1P4 22-907); assay: FACS on 293 cells stably transfected with gD epitope-tagged LgR5, 10 ug/ml antibody, R-Phycoerythrin goat anti-human detection
T5 construct: also called gD-tagged mouse LgR5
T5 sequence: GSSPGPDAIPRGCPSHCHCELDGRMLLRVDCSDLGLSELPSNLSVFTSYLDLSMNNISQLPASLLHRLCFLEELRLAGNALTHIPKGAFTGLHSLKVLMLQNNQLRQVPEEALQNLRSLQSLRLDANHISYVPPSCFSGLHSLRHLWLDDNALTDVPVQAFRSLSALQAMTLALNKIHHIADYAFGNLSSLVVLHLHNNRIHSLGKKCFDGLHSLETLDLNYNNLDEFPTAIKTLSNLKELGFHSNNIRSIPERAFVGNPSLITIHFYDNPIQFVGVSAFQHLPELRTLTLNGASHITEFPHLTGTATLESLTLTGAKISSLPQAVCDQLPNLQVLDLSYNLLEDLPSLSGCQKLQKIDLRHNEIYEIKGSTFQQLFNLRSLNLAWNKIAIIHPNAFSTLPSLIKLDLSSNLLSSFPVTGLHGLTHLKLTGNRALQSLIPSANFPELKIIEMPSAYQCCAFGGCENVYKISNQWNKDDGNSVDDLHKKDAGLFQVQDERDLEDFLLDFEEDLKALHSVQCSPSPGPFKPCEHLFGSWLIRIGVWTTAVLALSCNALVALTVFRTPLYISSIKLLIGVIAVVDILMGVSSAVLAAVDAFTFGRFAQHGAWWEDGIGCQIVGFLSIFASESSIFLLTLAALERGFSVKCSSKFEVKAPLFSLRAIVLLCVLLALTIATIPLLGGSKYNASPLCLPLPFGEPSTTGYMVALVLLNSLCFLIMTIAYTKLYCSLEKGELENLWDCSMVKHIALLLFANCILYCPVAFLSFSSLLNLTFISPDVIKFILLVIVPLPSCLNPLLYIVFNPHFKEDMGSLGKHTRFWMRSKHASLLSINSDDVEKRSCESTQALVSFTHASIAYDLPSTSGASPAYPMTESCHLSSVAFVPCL
Description: Monoclonal antibodies were tested to determine if they cross-react with LgR5 from species other than human. […] Residues that are identical among all four species are indicated by asterisks (*). […] YW353 antibody binds human and cynomolgus monkey LgR5, but not rat or mouse LgR5. Ch8E11 and hu8E11.v2 antibodies bind all four species of LgR5, although binding to rat LgR5 is not as strong as binding to human, cynomolgus monkey, or mouse LgR5. 2H6 antibody binds to human and mouse LgR5, and was not tested for binding to cynomolgus monkey or rat LgR5.

B1: monoclonal antibody 3G12 (antibody, V domains shown)
VH: QVQLQQPGAEMVKPGASVKLSCKASVDTFNSYWMHWVKQRPGQGLEWIGEINPSNGRTNYIEKFKNRATVTVDKSSSTAFMQLSSLTSEDSAVYYCATGWYFDVWGAGTTVTVSS
VL: DVVMTQTPLSLPVSLGDQASISCRSSQSLVHSNGNTYLQWYLQKPGQSPKLLIYKVSNRFSGVPDRFSGSGSGTDFTLKISRVEAEDLGIYFCSQSTHFPYTFGGGTKLEIKR
notes: The variable domains are the same in both forms; also called m3G12; mu3G12
B1: no binding (tested: 10 µg/ml) [1]; no binding (tested: 10 µg/ml) [2]; no binding (tested: 10 µg/ml) [3]. The Kd [4] was 72 nM and the binding result [5] was “binds”.

From patent US20130336885A1 (Genentech, published 2013)
